B1: one-armed NKE14_outer and ICI2_inner variant V5 (bispecific antibody, human IgG1, lambda, L234A L235A)
heavy 1: AVTLDESGGGLQTPGGGLSLVCKGSGFTFSSYNMGWVRQAPGKGLEFVASIDDDGSFTHYGAAVKGRATISRDNGQSTVRLQLNNLRVEDSGIYYCAKSSINGYRCSGGLCVPYITGNIDAWGHGTEVIVSSASTKGPSVFPLAPSSKSTSGGTAALGCLVKDYFPEPVTVSWNSGALTSGVHTFPAVLQSSGLYSLSSVVTVPSSSLGTQTYICNVNHKPSNTKVDKRVEPKSCDGGGGSGGGGSAVTLDESGGGLQTPGGALSLVCKASGFDFSSYDMAWVRQAPGKGLEWVAGIKSNGPWTNYGAAVKGRATISRDNGQSTVRLQLNNLRAEDTAIYYCAKPGAGYVGWDAAGTIDSWGHGTEVIVSSASTKGPSVFPLAPSSKSTSGGTAALGCLVKDYFPEPVTVSWNSGALTSGVHTFPAVLQSSGLYSLSSVVTVPSSSLGTQTYICNVNHKPSNTKVDKRVEPKSCDKTHTCPPCPAPEAAGGPSVFLFPPKPKDTLMISRTPEVTCVVVDVSHEDPEVKFNWYVDGVEVHNAKTKPREEQYNSTYRVVSVLTVLHQDWLNGKEYKCKVSNKALPAPIEKTISKAKGQPREPQVYTLPPSREEMTKNQVSLWCLVKGFYPSDIAVEWESNGQPENNYKTTPPVLDSDGSFFLYSKLTVDKSRWQQGNVFSCSVMHEALHNHYTQKSLSLSPG
heavy 2: EPKSCDKTHTCPPCPAPEAAGGPSVFLFPPKPKDTLMISRTPEVTCVVVDVSHEDPEVKFNWYVDGVEVHNAKTKPREEQYNSTYRVVSVLTVLHQDWLNGKEYKCKVSNKALPAPIEKTISKAKGQPREPQVYTLPPSREEMTKNQVSLSCAVKGFYPSDIAVEWESNGQPENNYKTTPPVLDSDGSFFLVSKLTVDKSRWQQGNVFSCSVMHEALHNRFTQKSLSLSPG
light: ALTQPSSVSANLGETVKITCSGGAYSDCGWYQQKSPGSAPVTVIYYNDKRPSDIPSRFSGSTFGSTATLTITGVQAEDEAVYYCGGYDSRTGYVGVFGAGTTLTVLGQPKANPTVTLFPPSSEELQANKATLVCLISDFYPGAVTVAWKADGSPVKAGVETTKPSKQSNNKYAASSYLSLTPEQWKSHRSYSCQVTHEGSTVEKTVAPTECS
notes: also called oaNKE14_outer
B2: one-armed ICI2_outer and NKE14_inner variant V3 (bispecific antibody, human IgG1, lambda, L234A L235A)
heavy 1: AVTLDESGGGLQTPGGALSLVCKASGFDFSSYDMAWVRQAPGKGLEWVAGIKSNGPWTNYGAAVKGRATISRDNGQSTVRLQLNNLRAEDTAIYYCAKPGAGYVGWDAAGTIDSWGHGTEVIVSSASTKGPSVFPLAPSSKSTSGGTAALGCLVKDYFPEPVTVSWNSGALTSGVHTFPAVLQSSGLYSLSSVVTVPSSSLGTQTYICNVNHKPSNTKVDKRVEPKSCDGGGGSGGGGSAVTLDESGGGLQTPGGGLSLVCKGSGFTFSSYNMGWVRQAPGKGLEFVASIDDDGSFTHYGAAVKGRATISRDNGQSTVRLQLNNLRVEDSGIYYCAKSSINGYRCSGGLCVPYITGNIDAWGHGTEVIVSSASTKGPSVFPLAPSSKSTSGGTAALGCLVKDYFPEPVTVSWNSGALTSGVHTFPAVLQSSGLYSLSSVVTVPSSSLGTQTYICNVNHKPSNTKVDKRVEPKSCDKTHTCPPCPAPEAAGGPSVFLFPPKPKDTLMISRTPEVTCVVVDVSHEDPEVKFNWYVDGVEVHNAKTKPREEQYNSTYRVVSVLTVLHQDWLNGKEYKCKVSNKALPAPIEKTISKAKGQPREPQVYTLPPSREEMTKNQVSLWCLVKGFYPSDIAVEWESNGQPENNYKTTPPVLDSDGSFFLYSKLTVDKSRWQQGNVFSCSVMHEALHNHYTQKSLSLSPG
heavy 2: B1 heavy 2
light: B1 light
notes: also called oaICI2_outer
B3: Knob-into-Hole (KiH) trispecific variant V1: HCP-LCE on one side and heavy chain of CD16 binder NKE14, paired with the HCP-LCE light chain (bispecific antibody, human IgG1, lambda, L234A L235A)
heavy 1: AVTLDESGGGLQTPGGALSLVCKASGFDFSSYDMAWVRQAPGKGLEWVAGIKSNGPWTNYGAAVKGRATISRDNGQSTVRLQLNNLRAEDTAIYYCAKPGAGYVGWDAAGTIDSWGHGTEVIVSSASTKGPSVFPLAPSSKSTSGGTAALGCLVKDYFPEPVTVSWNSGALTSGVHTFPAVLQSSGLYSLSSVVTVPSSSLGTQTYICNVNHKPSNTKVDKRVEPKSCDKTHTCPPCPAPEAAGGPSVFLFPPKPKDTLMISRTPEVTCVVVDVSHEDPEVKFNWYVDGVEVHNAKTKPREEQYNSTYRVVSVLTVLHQDWLNGKEYKCKVSNKALPAPIEKTISKAKGQPREPQVYTLPPSREEMTKNQVSLWCLVKGFYPSDIAVEWESNGQPENNYKTTPPVLDSDGSFFLYSKLTVDKSRWQQGNVFSCSVMHEALHNHYTQKSLSLSPG
heavy 2: AVTLDESGGGLQTPGGGLSLVCKGSGFTFSSYNMGWVRQAPGKGLEFVASIDDDGSFTHYGAAVKGRATISRDNGQSTVRLQLNNLRVEDSGIYYCAKSSINGYRCSGGLCVPYITGNIDAWGHGTEVIVSSASTKGPSVFPLAPSSKSTSGGTAALGCLVKDYFPEPVTVSWNSGALTSGVHTFPAVLQSSGLYSLSSVVTVPSSSLGTQTYICNVNHKPSNTKVDKRVEPKSCDKTHTCPPCPAPEAAGGPSVFLFPPKPKDTLMISRTPEVTCVVVDVSHEDPEVKFNWYVDGVEVHNAKTKPREEQYNSTYRVVSVLTVLHQDWLNGKEYKCKVSNKALPAPIEKTISKAKGQPREPQVYTLPPSREEMTKNQVSLSCAVKGFYPSDIAVEWESNGQPENNYKTTPPVLDSDGSFFLVSKLTVDKSRWQQGNVFSCSVMHEALHNRFTQKSLSLSPG
light: B1 light
notes: Trispecific (EGFR, PD-L1, CD16)
B4: NKE14_outer and ICI2_inner trispecific variant V4 (bispecific antibody, human IgG1, lambda, L234A L235A)
heavy: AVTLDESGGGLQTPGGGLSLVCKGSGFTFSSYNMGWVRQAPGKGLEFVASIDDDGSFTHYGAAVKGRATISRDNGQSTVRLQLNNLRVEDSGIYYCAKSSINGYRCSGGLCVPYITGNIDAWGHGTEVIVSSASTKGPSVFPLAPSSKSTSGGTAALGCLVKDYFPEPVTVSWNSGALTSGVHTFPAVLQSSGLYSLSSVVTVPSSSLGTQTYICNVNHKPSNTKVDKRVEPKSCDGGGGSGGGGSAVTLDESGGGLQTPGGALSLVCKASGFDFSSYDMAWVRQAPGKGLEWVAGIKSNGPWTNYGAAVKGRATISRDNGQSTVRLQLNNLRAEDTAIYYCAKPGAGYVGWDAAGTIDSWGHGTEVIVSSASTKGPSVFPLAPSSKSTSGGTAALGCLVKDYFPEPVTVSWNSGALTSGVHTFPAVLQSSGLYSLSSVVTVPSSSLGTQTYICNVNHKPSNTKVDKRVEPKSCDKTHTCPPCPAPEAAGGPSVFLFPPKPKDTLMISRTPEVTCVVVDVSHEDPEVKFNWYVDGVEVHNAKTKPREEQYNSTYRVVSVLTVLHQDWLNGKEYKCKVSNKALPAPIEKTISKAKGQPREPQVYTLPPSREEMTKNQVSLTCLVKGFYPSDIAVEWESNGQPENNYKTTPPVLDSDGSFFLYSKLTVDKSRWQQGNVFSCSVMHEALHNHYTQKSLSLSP
light: B1 light
notes: Two Fabs on each side, common light chain LCE; also called NKE14_outer Fab
B5: ICI2_outer and NKE14_inner trispecific variant V2 (bispecific antibody, human IgG1, lambda, L234A L235A)
heavy: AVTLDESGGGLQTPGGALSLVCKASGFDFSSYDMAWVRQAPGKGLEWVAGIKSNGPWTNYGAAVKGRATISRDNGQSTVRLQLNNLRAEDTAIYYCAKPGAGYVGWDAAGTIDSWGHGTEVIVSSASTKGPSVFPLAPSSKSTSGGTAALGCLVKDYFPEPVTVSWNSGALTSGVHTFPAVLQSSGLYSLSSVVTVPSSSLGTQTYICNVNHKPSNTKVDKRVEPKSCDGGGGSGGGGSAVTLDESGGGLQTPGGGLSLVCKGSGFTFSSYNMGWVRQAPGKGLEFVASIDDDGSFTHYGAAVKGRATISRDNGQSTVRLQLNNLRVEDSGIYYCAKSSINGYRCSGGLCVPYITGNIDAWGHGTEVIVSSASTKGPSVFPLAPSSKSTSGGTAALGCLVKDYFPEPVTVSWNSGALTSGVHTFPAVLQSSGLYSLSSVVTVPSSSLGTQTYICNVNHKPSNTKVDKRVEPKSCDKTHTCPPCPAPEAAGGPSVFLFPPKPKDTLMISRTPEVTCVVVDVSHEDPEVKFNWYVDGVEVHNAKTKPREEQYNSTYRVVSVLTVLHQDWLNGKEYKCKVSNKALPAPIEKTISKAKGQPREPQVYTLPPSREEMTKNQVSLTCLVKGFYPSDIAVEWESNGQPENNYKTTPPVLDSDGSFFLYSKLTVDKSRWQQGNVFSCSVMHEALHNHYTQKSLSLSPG
light: B1 light
notes: Two Fabs on each side, common light chain LCE; also called ICI2_outer Fab
B6: NKE14 + LCE comparative mAb (CD16-binding antibody NKE14 heavy chain with LCE light chain) (antibody)
VH: AVTLDESGGGLQTPGGGLSLVCKGSGFTFSSYNMGWVRQAPGKGLEFVASIDDDGSFTHYGAAVKGRATISRDNGQSTVRLQLNNLRVEDSGIYYCAKSSINGYRCSGGLCVPYITGNIDAWGHGTEVIVSS
light: B1 light
notes: LCE is the HCP-LCE light chain
B7: HC16/ICI2 KiH variant: HCP-LCE on one side and CD16 binder HC16 on the other, paired with the HCP-LCE light chain (bispecific antibody)
VH 1: AVTLDESGGGLQTPGGALSLVCKASGFDFSSYDMAWVRQAPGKGLEWVAGIKSNGPWTNYGAAVKGRATISRDNGQSTVRLQLNNLRAEDTAIYYCAKPGAGYVGWDAAGTIDSWGHGTEVIVSS
VH 2: AVTLDESGGGLQTPGGTLSLVCRASGFSFSSSDMFWVRQAPGKGLEYVAQISKDGSGKYYGAAVKGRATISRDNGQSTVRLQLNNLRAEDTGIYFCAKSGRGYVTAGRIDTWGHGTEVIVSS
light: B1 light
B8: HC16_outer/ICI2_inner trispecific variant (full-length HC16_outer and ICI2_inner LALA construct) (bispecific antibody, human IgG1, lambda, L234A L235A)
heavy: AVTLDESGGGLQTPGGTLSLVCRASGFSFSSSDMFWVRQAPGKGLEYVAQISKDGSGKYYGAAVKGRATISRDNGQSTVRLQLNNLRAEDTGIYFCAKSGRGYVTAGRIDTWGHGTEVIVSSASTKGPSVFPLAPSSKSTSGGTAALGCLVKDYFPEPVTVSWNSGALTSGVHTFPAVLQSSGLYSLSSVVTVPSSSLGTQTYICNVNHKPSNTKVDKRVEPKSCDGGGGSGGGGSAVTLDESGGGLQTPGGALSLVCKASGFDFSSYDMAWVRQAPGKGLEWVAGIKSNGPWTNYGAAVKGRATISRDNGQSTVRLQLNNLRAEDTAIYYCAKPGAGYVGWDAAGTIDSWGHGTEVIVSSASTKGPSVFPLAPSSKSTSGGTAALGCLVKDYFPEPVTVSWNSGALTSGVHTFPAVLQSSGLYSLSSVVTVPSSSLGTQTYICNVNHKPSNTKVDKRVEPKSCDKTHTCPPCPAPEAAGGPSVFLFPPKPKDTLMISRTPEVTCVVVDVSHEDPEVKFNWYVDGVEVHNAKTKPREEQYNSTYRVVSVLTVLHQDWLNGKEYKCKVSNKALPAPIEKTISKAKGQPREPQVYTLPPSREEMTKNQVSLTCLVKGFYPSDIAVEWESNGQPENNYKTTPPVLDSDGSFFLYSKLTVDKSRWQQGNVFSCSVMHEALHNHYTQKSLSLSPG
light: B1 light
notes: Two Fabs on each side, common light chain LCE; also called HC16_outer/ICI2_inner LALA

target: T1, programmed death-ligand 1 (PD-L1), soluble, as used in BLI (UniProt Q9NZQ7 19-238); test: BLI
T1 construct: extracellular domain; also called PD-L1-ECD
T1 sequence (Q9NZQ7 19-238): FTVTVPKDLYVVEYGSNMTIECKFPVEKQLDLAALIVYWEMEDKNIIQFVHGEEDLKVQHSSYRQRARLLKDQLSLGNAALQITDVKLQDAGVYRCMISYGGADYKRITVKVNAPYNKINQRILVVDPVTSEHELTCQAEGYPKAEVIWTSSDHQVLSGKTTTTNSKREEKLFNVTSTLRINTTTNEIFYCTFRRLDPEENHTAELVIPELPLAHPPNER

Binder | Kd [nM]
B1 | 137
B2 | 115
B3 | 104
B4 | 125
B5 | 97.6

target: T2, CD16 (UniProt P08637 17-208); test: BLI
T2 construct: also called Fcγ-receptor IIIa
T2 sequence (P08637 17-208): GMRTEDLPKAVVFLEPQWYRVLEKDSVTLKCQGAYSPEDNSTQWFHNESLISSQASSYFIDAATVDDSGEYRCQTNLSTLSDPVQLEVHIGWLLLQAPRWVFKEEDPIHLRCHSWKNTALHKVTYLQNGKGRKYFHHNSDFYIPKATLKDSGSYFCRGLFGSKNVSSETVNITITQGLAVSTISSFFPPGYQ

Binder | Kd [nM]
B1 | 342
B2 | 346
B3 | 277
B4 | 302
B5 | 382
B6 | 151

target: T3, epidermal growth factor receptor (EGFR), soluble, as used in BLI (UniProt P00533 25-645); test: BLI
T3 construct: extracellular domain; also called EGFR-ECD

Binder | Kd [nM]
B1 | 982
B2 | 763
B3 | 570
B4 | 603
B5 | 460

target: T1, programmed death-ligand 1 (PD-L1), …; test: BLI; remark: another data set of the same source

Binder | Kd [nM]
B7 | 57.7
B8 | 68

target: T2, CD16; test: BLI; remark: another data set of the same source

Binder | Kd [nM]
B7 | 21.9
B8 | 17

target: T3, epidermal growth factor receptor …; test: BLI; remark: another data set of the same source

Binder | Kd [nM]
B7 | 320
B8 | 331
